Test results published in US20210246166A1 (Bayer, published 2021).
Bridge positions count the residues as written; N and C are the ends. Square brackets hold non-standard residues; d marks the D form. Ends that are not written are not given here. * marks the point of attachment. (Trifluoro)l/L = 5,5,5-trifluoro-DL-leucine; Pro(trans-4-F) = O=C(O)[C@@H]1C[C@@H](F)CN1; Oic = O=C(O)[C@@H]1C[C@@H]2CCCC[C@@H]2N1; Butanoyl(3,3-Me2) = CC(C)(C)CC(=O)*; Cyclobutylacetic = O=C(CC1CCC1)*; Hyp = O=C(O)[C@@H]1C[C@@H](O)CN1; tBuAla = CC(C)(C)C[C@H](N)C(=O)O; Gly(cBu) = N[C@H](C(=O)O)C1CCC1; Pen = CC(C)(S)[C@H](N)C(=O)O; NMeC = CN[C@@H](CS)C(=O)O; Orn = NCCC[C@H](N)C(=O)O; Lac = C[C@H](O)C(=O)O; Ahx = NCCCCCC(=O)O; Sar = CNCC(=O)O

T1: recombinant human MASP1 active protease (amino acids 297-699, C-terminal His Tag) (human, UniProt P48740 297-699)
T1 sequence: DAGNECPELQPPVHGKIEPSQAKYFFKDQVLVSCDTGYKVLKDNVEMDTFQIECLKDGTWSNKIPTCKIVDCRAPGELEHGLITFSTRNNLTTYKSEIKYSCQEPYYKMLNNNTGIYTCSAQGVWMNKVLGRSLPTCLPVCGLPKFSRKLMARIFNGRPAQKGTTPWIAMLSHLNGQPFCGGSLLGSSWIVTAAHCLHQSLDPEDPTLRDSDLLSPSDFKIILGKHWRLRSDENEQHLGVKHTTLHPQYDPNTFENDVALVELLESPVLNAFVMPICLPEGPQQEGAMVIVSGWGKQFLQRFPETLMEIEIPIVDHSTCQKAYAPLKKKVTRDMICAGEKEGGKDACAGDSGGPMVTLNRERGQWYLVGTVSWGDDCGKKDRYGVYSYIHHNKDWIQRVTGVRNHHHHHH

B1: Example 381: ((N-Me)G)-(Orn)-(Orn)-(Orn)-IC+SRS-((tBu)A)-PPI-(Pen)+IP-NH2 (peptide)
peptide: [Sar][Orn][Orn][Orn]ICSRS[tBuAla]PPI[Pen]IP-NH2
modifications: disulfide 6-14; N-terminus assumed
SMILES: CC[C@H](C)[C@H](NC(=O)[C@H](CCCN)NC(=O)[C@H](CCCN)NC(=O)[C@H](CCCN)NC(=O)CNC)C(=O)N[C@H]1CSSC(C)(C)[C@@H](C(=O)N[C@H](C(=O)N2CCC[C@H]2C(N)=O)[C@@H](C)CC)NC(=O)[C@H]([C@@H](C)CC)NC(=O)[C@@H]2CCCN2C(=O)[C@@H]2CCCN2C(=O)[C@H](CC(C)(C)C)NC(=O)[C@H](CO)NC(=O)[C@H](CCCNC(=N)N)NC(=O)[C@H](CO)NC1=O
B2: Example 390: ((N-Me)G)-IC+SRSLP-((trans-4-Fluoro)P)-IC+IPD-OH (peptide)
peptide: [Sar]ICSRSLP[Pro(trans-4-F)]ICIPD-OH
modifications: disulfide 3-11; N-terminus assumed
SMILES: CC[C@H](C)[C@H](NC(=O)CNC)C(=O)N[C@H]1CSSC[C@@H](C(=O)N[C@H](C(=O)N2CCC[C@H]2C(=O)N[C@@H](CC(=O)O)C(=O)O)[C@@H](C)CC)NC(=O)[C@H]([C@@H](C)CC)NC(=O)[C@@H]2C[C@@H](F)CN2C(=O)[C@@H]2CCCN2C(=O)[C@H](CC(C)C)NC(=O)[C@H](CO)NC(=O)[C@H](CCCNC(=N)N)NC(=O)[C@H](CO)NC1=O
B3: Example 387: (Lactic)-IC+SRS-((tBu)A)-PPIC+IPD-NH2 (peptide)
peptide: [Lac]ICSRS[tBuAla]PPICIPD-NH2
modifications: disulfide 3-11; N-terminus assumed
SMILES: CC[C@H](C)[C@H](NC(=O)[C@H](C)O)C(=O)N[C@H]1CSSC[C@@H](C(=O)N[C@H](C(=O)N2CCC[C@H]2C(=O)N[C@@H](CC(=O)O)C(N)=O)[C@@H](C)CC)NC(=O)[C@H]([C@@H](C)CC)NC(=O)[C@@H]2CCCN2C(=O)[C@@H]2CCCN2C(=O)[C@H](CC(C)(C)C)NC(=O)[C@H](CO)NC(=O)[C@H](CCCNC(=N)N)NC(=O)[C@H](CO)NC1=O
B4: Example 380: GIC+SRSL-(Hyp)-PIC+IPD-OH (peptide)
peptide: GICSRSL[Hyp]PICIPD-OH
modifications: disulfide 3-11; N-terminus assumed
SMILES: CC[C@H](C)[C@H](NC(=O)CN)C(=O)N[C@H]1CSSC[C@@H](C(=O)N[C@H](C(=O)N2CCC[C@H]2C(=O)N[C@@H](CC(=O)O)C(=O)O)[C@@H](C)CC)NC(=O)[C@H]([C@@H](C)CC)NC(=O)[C@@H]2CCCN2C(=O)[C@@H]2C[C@@H](O)CN2C(=O)[C@H](CC(C)C)NC(=O)[C@H](CO)NC(=O)[C@H](CCCNC(=N)N)NC(=O)[C@H](CO)NC1=O
B5: Example 383: (Ahx)-IC+SRSLP-(Oic)-IC+I-OH (peptide)
peptide: [Ahx]ICSRSLP[Oic]ICI-OH
modifications: disulfide 3-11; N-terminus assumed
SMILES: CC[C@H](C)[C@H](NC(=O)[C@@H]1CSSC[C@H](NC(=O)[C@@H](NC(=O)CCCCCN)[C@@H](C)CC)C(=O)N[C@@H](CO)C(=O)N[C@@H](CCCNC(=N)N)C(=O)N[C@@H](CO)C(=O)N[C@@H](CC(C)C)C(=O)N2CCC[C@H]2C(=O)N2[C@@H](C[C@@H]3CCCC[C@@H]32)C(=O)N[C@@H]([C@@H](C)CC)C(=O)N1)C(=O)O
B6: Example 382: (Cyclobutylacetic)-IC+SRS-((tBu)A)-PPI-((N-Me)C)+I-NH2 (peptide)
peptide: Cyclobutylacetic-ICSRS[tBuAla]PPI[NMeC]I-NH2
modifications: disulfide 2-10
SMILES: CC[C@H](C)[C@H](NC(=O)[C@@H]1CSSC[C@H](NC(=O)[C@@H](NC(=O)CC2CCC2)[C@@H](C)CC)C(=O)N[C@@H](CO)C(=O)N[C@@H](CCCNC(=N)N)C(=O)N[C@@H](CO)C(=O)N[C@@H](CC(C)(C)C)C(=O)N2CCC[C@H]2C(=O)N2CCC[C@H]2C(=O)N[C@@H]([C@@H](C)CC)C(=O)N1C)C(N)=O
B7: Example 388: IC+SRSLP-(Oic)-I-(Pen)+IPQ-OH (peptide)
peptide: ICSRSLP[Oic]I[Pen]IPQ-OH
modifications: disulfide 2-10; N-terminus assumed
SMILES: CC[C@H](C)[C@H](N)C(=O)N[C@H]1CSSC(C)(C)[C@@H](C(=O)N[C@H](C(=O)N2CCC[C@H]2C(=O)N[C@@H](CCC(N)=O)C(=O)O)[C@@H](C)CC)NC(=O)[C@H]([C@@H](C)CC)NC(=O)[C@@H]2C[C@@H]3CCCC[C@@H]3N2C(=O)[C@@H]2CCCN2C(=O)[C@H](CC(C)C)NC(=O)[C@H](CO)NC(=O)[C@H](CCCNC(=N)N)NC(=O)[C@H](CO)NC1=O
B8: Example 389: AIC+SRSLPP-(Cyclobutylglycine)-C+IPD-NH2 (peptide)
peptide: AICSRSLPP[Gly(cBu)]CIPD-NH2
modifications: disulfide 3-11; N-terminus assumed
SMILES: CC[C@H](C)[C@H](NC(=O)[C@H](C)N)C(=O)N[C@H]1CSSC[C@@H](C(=O)N[C@H](C(=O)N2CCC[C@H]2C(=O)N[C@@H](CC(=O)O)C(N)=O)[C@@H](C)CC)NC(=O)[C@H](C2CCC2)NC(=O)[C@@H]2CCCN2C(=O)[C@@H]2CCCN2C(=O)[C@H](CC(C)C)NC(=O)[C@H](CO)NC(=O)[C@H](CCCNC(=N)N)NC(=O)[C@H](CO)NC1=O
B9: Example 396: (tert-Butylacetic acid)-IC+SRS-((tBu)A)-PPI-(Pen)+I-NH2 (peptide)
peptide: {Butanoyl(3,3-Me2)}-ICSRS[tBuAla]PPI[Pen]I-NH2
modifications: disulfide 2-10
SMILES: CC[C@H](C)[C@H](NC(=O)[C@H]1NC(=O)[C@H]([C@@H](C)CC)NC(=O)[C@@H]2CCCN2C(=O)[C@@H]2CCCN2C(=O)[C@H](CC(C)(C)C)NC(=O)[C@H](CO)NC(=O)[C@H](CCCNC(=N)N)NC(=O)[C@H](CO)NC(=O)[C@@H](NC(=O)[C@@H](NC(=O)CC(C)(C)C)[C@@H](C)CC)CSSC1(C)C)C(N)=O
B10: Example 386: ((N-Me)G)-IC+SRSLPPIC+IpD-OH (peptide)
peptide: [Sar]ICSRSLPPICI[dP]D-OH
modifications: disulfide 3-11; N-terminus assumed
SMILES: CC[C@H](C)[C@H](NC(=O)CNC)C(=O)N[C@H]1CSSC[C@@H](C(=O)N[C@H](C(=O)N2CCC[C@@H]2C(=O)N[C@@H](CC(=O)O)C(=O)O)[C@@H](C)CC)NC(=O)[C@H]([C@@H](C)CC)NC(=O)[C@@H]2CCCN2C(=O)[C@@H]2CCCN2C(=O)[C@H](CC(C)C)NC(=O)[C@H](CO)NC(=O)[C@H](CCCNC(=N)N)NC(=O)[C@H](CO)NC1=O

molecular target: recombinant human MASP2 active protease (amino acids 297-686, C-terminal His Tag) (human, UniProt O00187 297-686); test: cell-based or functional assay
Sequence (O00187 other isoform, or with tags, fused parts or gaps limits assumed): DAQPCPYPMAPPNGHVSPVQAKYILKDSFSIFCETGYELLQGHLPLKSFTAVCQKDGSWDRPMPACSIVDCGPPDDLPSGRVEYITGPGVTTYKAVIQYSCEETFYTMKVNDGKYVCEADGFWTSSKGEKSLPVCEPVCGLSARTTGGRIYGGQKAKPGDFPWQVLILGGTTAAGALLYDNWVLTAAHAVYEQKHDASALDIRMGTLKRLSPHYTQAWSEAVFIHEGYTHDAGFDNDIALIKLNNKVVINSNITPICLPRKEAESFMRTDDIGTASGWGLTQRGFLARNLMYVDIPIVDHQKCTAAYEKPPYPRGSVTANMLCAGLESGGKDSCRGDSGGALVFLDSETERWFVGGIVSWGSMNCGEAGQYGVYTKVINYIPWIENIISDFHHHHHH

| human MASP2 IC50 | Binder |
| --- | --- |
| 3800 nM | {(2S,3S)‑2‑(2-Oxopiperazin-1-yl)‑3‑methylpentanoic acid}-CSRSLPPICIPD-OH (disulfide 1-9) [Example 397: ((2S,3S)-2-[2-Oxopiperazin-1-yl]-3-methylpentanoic acid)-C+SRSLPPIC+IPD-OH] |
| 550 nM | B1 |
| 1300 nM | B2 |
| 2200 nM | B3 |
| 80 nM | {2‑Hydroxyisobutyric}-ICSRS[tBuAla]PPICIPD-NH2 (disulfide 2-10) [Example 392: (2-Hydroxyisobutyric)-IC+SRS-((tBu)A)-PPIC+IPD-NH2] |
| 810 nM | B4 |
| 800 nM | B5 |
| 3800 nM | {(2S,3S)‑2‑((3S)-2-oxopiperazin-1-yl)‑3‑methylpentanoic acid}-CSRSLPPICIAD-OH (disulfide 1-9) [Example 393: ((2S,3S)-2-[(3S)-2-oxopiperazin-1-yl]-3-methylpentanoic acid)-C+SRSLPPIC+IAD-OH] |
| 41 nM | B6 |
| 750 nM | B7 |
| 330 nM | B8 |
| 260 nM | GICSRS[(Trifluoro)l/L]PPICIPD-OH (disulfide 3-11) [Example 384: GIC+SRS-((Trifluoro)l/L)-PPIC+IPD-OH] |
| 28 nM | B9 |
| 750 nM | B10 |

molecular target: T1, recombinant human MASP1 active protease …; test: cell-based or functional assay

| human MASP1 IC50 | Binder |
| --- | --- |
| 54 nM | {(2S,3S)‑2‑(2-Oxopiperazin-1-yl)‑3‑methylpentanoic acid}-CSRSLPPICIPD-OH (disulfide 1-9) [Example 397: ((2S,3S)-2-[2-Oxopiperazin-1-yl]-3-methylpentanoic acid)-C+SRSLPPIC+IPD-OH] |
| 40 nM | B1 |
| 47 nM | B2 |
| 44 nM | B3 |
| 47 nM | {2‑Hydroxyisobutyric}-ICSRS[tBuAla]PPICIPD-NH2 (disulfide 2-10) [Example 392: (2-Hydroxyisobutyric)-IC+SRS-((tBu)A)-PPIC+IPD-NH2] |
| 40 nM | B4 |
| 40 nM | B5 |
| 49 nM | {(2S,3S)‑2‑((3S)-2-oxopiperazin-1-yl)‑3‑methylpentanoic acid}-CSRSLPPICIAD-OH (disulfide 1-9) [Example 393: ((2S,3S)-2-[(3S)-2-oxopiperazin-1-yl]-3-methylpentanoic acid)-C+SRSLPPIC+IAD-OH] |
| 40 nM | B6 |
| 45 nM | B7 |
| 46 nM | B8 |
| 42 nM | GICSRS[(Trifluoro)l/L]PPICIPD-OH (disulfide 3-11) [Example 384: GIC+SRS-((Trifluoro)l/L)-PPIC+IPD-OH] |
| 53 nM | B9 |
| 43 nM | B10 |
